B1: Calreticulin (Homo sapiens), P27797 (parent)
chain: MLLSVPLLLGLLGLAVAEPAVYFKEQFLDGDGWTSRWIESKHKSDFGKFVLSSGKFYGDEEKDKGLQTSQDARFYALSASFEPFSNKGQTLVVQFTVKHEQNIDCGGGYVKLFPNSLDQTDMHGDSEYNIMFGPDICGPGTKKVHVIFNYKGKNVLINKDIRCKDDEFTHLYTLIVRPDNTYEVKIDNSQVESGSLEDDWDFLPPKKIKDPDASKPEDWDERAKIDDPTDSKPEDWDKPEHIPDPDAKKPEDWDEEMDGEWEPPVIQNPEYKGEWKPRQIDNPDYKGTWIHPEIDNPEYSPDPSIYAYDNFGVLGLDLWQVKSGTIFDNFLITNDEAYAEEFGNETWGVTKAAEKQMKDKQDEEQRLKEEEEDKKRKEEEEAEDKEDDEDKDEDEEDEEDKEEDEEEDVPGQAKDEL

This test covers variants of B1. Conditions: with gbrap_human GABARAP.
Turning to W200A, the “effect of a mutation on the interaction” value was “disrupting interaction”.

The values are drawn from IntAct's records for PubMed 19154346.
